This note sets out measurements from patent publication US20230265151A1, “GIP/GLP1 CO-AGONIST COMPOUNDS” (priority 2020, published 2023).

T1: human GIP receptor (human, UniProt P48546 22-466)
T1 sequence (looked up): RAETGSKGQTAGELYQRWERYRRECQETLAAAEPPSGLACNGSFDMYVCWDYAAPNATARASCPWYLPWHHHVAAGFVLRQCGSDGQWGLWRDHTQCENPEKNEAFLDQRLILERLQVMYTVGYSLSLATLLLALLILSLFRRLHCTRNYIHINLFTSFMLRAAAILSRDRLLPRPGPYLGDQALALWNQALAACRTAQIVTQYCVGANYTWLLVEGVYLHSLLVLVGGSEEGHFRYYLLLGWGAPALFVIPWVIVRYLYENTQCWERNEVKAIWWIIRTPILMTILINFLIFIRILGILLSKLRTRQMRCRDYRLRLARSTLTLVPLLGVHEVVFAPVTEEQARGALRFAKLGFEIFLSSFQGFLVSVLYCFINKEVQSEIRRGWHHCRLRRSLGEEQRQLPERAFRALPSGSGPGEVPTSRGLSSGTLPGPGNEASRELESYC

B1: Example 402 (peptide)
peptide: YXEGTXTSDYXIXLDXQAQXEFIKXLIKGGPSSGAPPPS
modifications: Y-Aib-EGT-αMeF(2F)-TSDY-Aib-I-αMeL-LD-Orn-QAQ-Aib-EFIK((2-[2-(2-Amino-ethoxy)-ethoxy]-acetyl)2-(γ-Glu)-(10-(4-carboxyphenoxy)decanoyl))-αMeY-LIK((2-[2-(2-Amino-ethoxy)-ethoxy]-acetyl)2-(γ-Glu)-(10-(4-carboxyphenoxy)decanoyl))GGPSSGAPPPS-NH2
B2: Example 450 (peptide)
peptide: B1 peptide with Y10X, E21X
modifications: not fully specified; Y-Aib-EGT-αMeF(2F)-TSD-4Pal-Aib-I-αMeL-LD-Orn-QAQ-Aib-Orn-FIK((2-[2-(2-Amino-ethoxy)-ethoxy]-acetyl)-Aoc-(γ-Glu)-CO-(CH2)12-CO2)-αMeY-LIK((2-[2-(2-Amino-ethoxy)-ethoxy]-acetyl)-Aoc-(γ-Glu)-CO-(CH2)12-CO2)GGPSSGAPPPS-NH2
B3: Example 451 (peptide)
peptide: B1 peptide with Y10X, E21X
modifications: not fully specified; Y-Aib-EGT-αMeF(2F)-TSD-4Pal-Aib-I-αMeL-LD-Orn-QAQ-Aib-Orn-FIK(Ahx-(2-[2-(2-Amino-ethoxy)-ethoxy]-acetyl)-(γ-Glu)-CO-(CH2)12-CO2)-αMeY-LIK(Ahx-(2-[2-(2-Amino-ethoxy)-ethoxy]-acetyl)-(γ-Glu)-CO-(CH2)12-CO2)GGPSSGAPPPS-NH2
B4: Example 442 (peptide)
peptide: B1 peptide with Y10X, E21X
modifications: Y-Aib-EGT-αMeF(2F)-TSD-4Pal-Aib-I-αMeL-LD-Orn-QAQ-Aib-Orn-FIK(2-[2-(2-Amino-ethoxy)-ethoxy]-acetyl)2-(γ-Glu)-(11-(4-carboxyphenoxy)undecanoyl)-αMeY-LIK((2-[2-(2-Amino-ethoxy)-ethoxy]-acetyl)2-(γ-Glu)-(11-(4-carboxyphenoxy)undecanoyl)GGPSSGAPPPS-NH2)
B5: Example 412 (peptide)
peptide: B1 peptide
modifications: Y-Aib-EGT-αMeF(2F)-TSDY-Aib-I-αMeL-LD-Orn-QAQ-Aib-EFIK((2-[2-(2-Amino-ethoxy)-ethoxy]-acetyl)2-(γ-Glu)-CO-(CH2)12-CO2H)-αMeY-LIK((2-[2-(2-Amino-ethoxy)-ethoxy]-acetyl)2-(γ-Glu)-CO-(CH2)12-CO2H)GGPSSGAPPPS-NH2
B6: Example 401 (peptide)
peptide: B1 peptide with E21X
modifications: Y-Aib-EGT-αMeF(2F)-TSDY-Aib-I-αMeL-LD-Orn-QAQ-Aib-Orn-FIK((2-[2-(2-Amino-ethoxy)-ethoxy]-acetyl)2-(γ-Glu)-CO-(CH2)12-CO2H)-αMeY-LIK((2-[2-(2-Amino-ethoxy)-ethoxy]-acetyl)2-(γ-Glu)-CO-(CH2)12-CO2H)GGPSSGAPPPS-NH2
B7: Example 391 (peptide)
peptide: B1 peptide with Y10X, E21X
modifications: Y-Aib-EGT-αMeF(2F)-TSD-4Pal-Aib-I-αMeL-LD-Orn-QAQ-Aib-Orn-FIK((2-[2-(2-Amino-ethoxy)-ethoxy]-acetyl)2-(γ-Glu)-CO-(CH2)12-CO2H)-αMeY-LIK((2-[2-(2-Amino-ethoxy)-ethoxy]-acetyl)2-(γ-Glu)-CO-(CH2)12-CO2H)GGPSSGAPPPS-NH2
B8: Example 452 (peptide)
peptide: B1 peptide with Y10X, E21X
modifications: not fully specified; Y-Aib-EGT-αMeF(2F)-TSD-4Pal-Aib-I-αMeL-LD-Orn-QAQ-Aib-Orn-FIK(Aoc-(2-[2-(2-Amino-ethoxy)-ethoxy]-acetyl)-(γ-Glu)-CO-(CH2)12-CO2)-αMeY-LIK(Aoc-(2-[2-(2-Amino-ethoxy)-ethoxy]-acetyl)-(γ-Glu)-CO-(CH2)12-CO2)GGPSSGAPPPS-NH2
B9: Example 375 (peptide)
peptide: B1 peptide with Q17I
modifications: Y-Aib-EGT-αMeF(2F)-TSDY-Aib-I-αMeL-LD-Orn-IAQ-Aib-EFIK((2-[2-(2-Amino-ethoxy)-ethoxy]-acetyl)-(γ-Glu)-(10-(4-carboxyphenoxy)decanoyl))-αMeY-LIK((2-[2-(2-Amino-ethoxy)-ethoxy]-acetyl)-(γ-Glu)-(10-(4-carboxyphenoxy)decanoyl))GGPSSGAPPPS-NH2
B10: Example 448 (peptide)
peptide: Y[Aib]EGT[αMePhe(2-F)]TSDV[Aib]I[αMeL]LD[Orn]QAQ[Aib][Orn]FIK([AEEA-AEEA-γGlu-C14 diacid])[αMeY]LIK([AEEA-AEEA-γGlu-C14 diacid])GGPSSGAPPPS-NH2
modifications: N-terminus assumed
SMILES: CC[C@H](C)[C@H](NC(=O)[C@H](CC(C)C)NC(=O)[C@](C)(Cc1ccc(O)cc1)NC(=O)[C@H](CCCCNC(=O)COCCOCCNC(=O)COCCOCCNC(=O)CC[C@H](NC(=O)CCCCCCCCCCCCC(=O)O)C(=O)O)NC(=O)[C@@H](NC(=O)[C@H](Cc1ccccc1)NC(=O)[C@H](CCCN)NC(=O)C(C)(C)NC(=O)[C@H](CCC(N)=O)NC(=O)[C@H](C)NC(=O)[C@H](CCC(N)=O)NC(=O)[C@H](CCCN)NC(=O)[C@H](CC(=O)O)NC(=O)[C@H](CC(C)C)NC(=O)[C@](C)(CC(C)C)NC(=O)[C@@H](NC(=O)C(C)(C)NC(=O)[C@@H](NC(=O)[C@H](CC(=O)O)NC(=O)[C@H](CO)NC(=O)[C@@H](NC(=O)[C@](C)(Cc1ccccc1F)NC(=O)[C@@H](NC(=O)CNC(=O)[C@H](CCC(=O)O)NC(=O)C(C)(C)NC(=O)[C@@H](N)Cc1ccc(O)cc1)[C@@H](C)O)[C@@H](C)O)C(C)C)[C@@H](C)CC)[C@@H](C)CC)C(=O)N[C@@H](CCCCNC(=O)COCCOCCNC(=O)COCCOCCNC(=O)CC[C@H](NC(=O)CCCCCCCCCCCCC(=O)O)C(=O)O)C(=O)NCC(=O)NCC(=O)N1CCC[C@H]1C(=O)N[C@@H](CO)C(=O)N[C@@H](CO)C(=O)NCC(=O)N[C@@H](C)C(=O)N1CCC[C@H]1C(=O)N1CCC[C@H]1C(=O)N1CCC[C@H]1C(=O)N[C@@H](CO)C(N)=O

Positions count from the first letter of the chain named. *1 amine or outer side, *2 acyl side, *3 side chain or, on linkers, in order; H or OH if unused. Where no end group is shown, it is not given here. Side-chain parts run from the residue outwards. [ ]: non-standard residue; d: D form. The star is where a group is joined. αMePhe(2-F) = C[C@](N)(Cc1ccccc1F)C(=O)O; γGlu = O=C(O)[C@H](CCC(=O)[*:2])N[*:1]; C14 diacid = O=C(O)CCCCCCCCCCCCC(=O)*; αMeY = C[C@](N)(Cc1ccc(O)cc1)C(=O)O; αMeL = CC(C)C[C@](C)(N)C(=O)O; Orn = NCCC[C@H](N)C(=O)O; AEEA = NCCOCCOCC(=O)O; Aib = CC(C)(N)C(=O)O

Chain of human glucagon receptor (P47871 26-477): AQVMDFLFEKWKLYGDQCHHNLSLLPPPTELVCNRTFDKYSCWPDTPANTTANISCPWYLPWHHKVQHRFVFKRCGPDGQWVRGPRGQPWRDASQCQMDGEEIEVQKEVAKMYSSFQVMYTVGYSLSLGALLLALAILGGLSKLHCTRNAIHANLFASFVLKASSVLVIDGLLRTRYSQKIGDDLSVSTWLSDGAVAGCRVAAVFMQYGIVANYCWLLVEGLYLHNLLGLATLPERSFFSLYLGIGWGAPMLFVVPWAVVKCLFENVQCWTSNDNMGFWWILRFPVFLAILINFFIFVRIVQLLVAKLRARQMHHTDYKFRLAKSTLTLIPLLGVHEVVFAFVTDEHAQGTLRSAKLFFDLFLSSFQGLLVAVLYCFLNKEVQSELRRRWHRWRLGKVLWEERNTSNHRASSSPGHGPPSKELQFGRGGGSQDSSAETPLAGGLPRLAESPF

The target of one test is human GLP-1 receptor (human, UniProt P43220 24-463). In words: cell-based or functional assay.
Consider B1, for which the “cAMP EC50 (1.0% HSA)” value is 13.5 nM.

For B2, the “cAMP EC50 (1.0% HSA)” value turned out to be 32.3 nM.

B3: the “cAMP EC50 (1.0% HSA)” value stood at 7.23 nM.

Turning to B4, the “cAMP EC50 (1.0% HSA)” value worked out at 7.63 nM.

On to B5, for which the “cAMP EC50 (1.0% HSA)” value turned out to be 18.3 nM.

On to B6, for which the “cAMP EC50 (1.0% HSA)” value worked out at 5.39 nM and the “cAMP Emax (1.0% HSA)” value amounted to 107%.

Take B7: the “cAMP EC50 (1.0% HSA)” value turned out to be 2.62 nM.

As for B8, the “cAMP EC50 (1.0% HSA)” value was determined as 16.8 nM.

B9: the “cAMP EC50 (1.0% HSA)” value was 56.1 nM.

Regarding B10, the “cAMP EC50 (1.0% HSA)” value worked out at 7.91 nM and the “cAMP Emax (1.0% HSA)” value worked out at 99.5%.

Another test has as its target T1, human GIP receptor. Kind of test: cell-based or functional assay.
Take B1: the “cAMP EC50 (1.0% HSA)” value turned out to be 1.11 nM and the “cAMP Emax (1.0% HSA)” value stood at 84.5%.

In the case of B2, the “cAMP EC50 (1.0% HSA)” value was found to be 2.44 nM.

Take B3: the “cAMP EC50 (1.0% HSA)” value is 0.518 nM.

As to B4, the “cAMP EC50 (1.0% HSA)” value is 0.687 nM.

Regarding B5, the “cAMP EC50 (1.0% HSA)” value was 1.57 nM and the “cAMP Emax (1.0% HSA)” value turned out to be 87.5%.

For the molecule B6, the “cAMP EC50 (1.0% HSA)” value was 0.434 nM and the “cAMP Emax (1.0% HSA)” value came to 83%.

Regarding B7, the “cAMP EC50 (1.0% HSA)” value worked out at 0.266 nM.

Regarding B8, the “cAMP EC50 (1.0% HSA)” value turned out to be 1.21 nM.

Regarding B9, the “cAMP EC50 (1.0% HSA)” value was found to be 4.68 nM.

With B10, the “cAMP EC50 (1.0% HSA)” value stood at 1.41 nM.

The next test concerns the target human glucagon receptor (human, UniProt P47871 26-477). In words: cell-based or functional assay.
As for B1, the “cAMP EC50 (1.0% HSA)” value was > 9950 nM.

In the case of B2, the “cAMP EC50 (1.0% HSA)” value was > 9950 nM.

On to B3, for which the “cAMP EC50 (1.0% HSA)” value was > 9950 nM.

For the molecule B4, the “cAMP EC50 (1.0% HSA)” value is > 9950 nM.

As to B5, the “cAMP EC50 (1.0% HSA)” value was > 9950 nM.

In the case of B6, the “cAMP EC50 (1.0% HSA)” value is > 9950 nM.

Regarding B7, the “cAMP EC50 (1.0% HSA)” value is > 9950 nM.

On to B8, for which the “cAMP EC50 (1.0% HSA)” value is > 9950 nM.

B9: the “cAMP EC50 (1.0% HSA)” value is > 9950 nM.

In the case of B10, the “cAMP EC50 (1.0% HSA)” value was > 9950 nM.
